The target of experiment [1] is T1, soluble CD32B (sCD32B) (human, UniProt P31994 43-217, biotin where used as the ELISA probe).
T1 construct: extracellular domain; also called soluble CD32B ectodomain; sCD32B-biotin
T1 sequence (looked up): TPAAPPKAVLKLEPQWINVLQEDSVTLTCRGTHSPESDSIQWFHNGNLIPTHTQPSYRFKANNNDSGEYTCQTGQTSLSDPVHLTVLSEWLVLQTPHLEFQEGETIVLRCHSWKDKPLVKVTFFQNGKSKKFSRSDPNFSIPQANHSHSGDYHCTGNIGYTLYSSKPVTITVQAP
Nature of the experiment: SPR (BIAcore), receptor immobilised. On the procedure: (§1) (A) Binding to sCD16; (B) Binding to sCD32B and (C) Binding to sCD32A. Diabodies were injected at a concentration of 100 NM, and scFv at a concentration of 200 nM, over receptor surfaces at a flow rate of […] for 60 sec.
(§2) sCD16A, sCD32B or sCD32A (negative control) were immobilized on one of the four flow cells (flow cell 2) of a sensor chip surface through amine coupling chemistry (by modification of carboxymethyl groups with mixture of NHS/EDC) such that about 1000 response units (RU) of either receptor was immobilized on the surface. Following this, the unreacted active esters were “capped off” with an injection of 1M Et-NH2.
On the technique in general: In SPR one partner is held on a chip, and binding of the other changes the refractive index at the surface.

The target in experiment [2] is T2, sCD32A (UniProt P12318 34-217, limits assumed).
T2 construct: extracellular domain; Negative control surface in SPR; also called control receptor
T2 sequence (looked up): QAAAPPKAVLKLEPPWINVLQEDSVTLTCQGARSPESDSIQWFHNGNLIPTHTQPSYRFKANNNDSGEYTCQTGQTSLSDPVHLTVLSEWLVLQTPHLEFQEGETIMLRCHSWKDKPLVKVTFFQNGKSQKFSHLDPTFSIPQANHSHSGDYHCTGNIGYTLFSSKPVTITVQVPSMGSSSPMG
Description: SPR (BIAcore), receptor immobilised. On the procedure:
as §1, §2

Experiment [3] addresses T3, soluble CD16A (sCD16A) (human, UniProt P08637 17-208, biotin or HRP conjugate where used as the ELISA probe).
T3 construct: extracellular domain; Printed only as soluble CD16A; also called hCD16A; hCD16
Nature of the experiment: SPR (BIAcore), receptor immobilised, diabody 6.25-200 nM as analyte, bivalent analyte fit. On the procedure:
Diabodies were injected at concentrations of 6.25-200 nM over receptor surfaces at a flow rate of […] for 180 sec.
as §2

Experiment [4] addresses T4, sCD32B-Ig (UniProt P31994 43-217).
T4 construct: extracellular domain; not shown: Ig part of sCD32B-Ig; not described
T4 sequence (looked up): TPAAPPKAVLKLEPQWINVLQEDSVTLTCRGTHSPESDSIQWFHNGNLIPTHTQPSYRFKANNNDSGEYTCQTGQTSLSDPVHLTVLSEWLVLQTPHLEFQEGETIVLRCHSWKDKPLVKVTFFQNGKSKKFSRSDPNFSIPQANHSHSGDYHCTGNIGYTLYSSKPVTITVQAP
Nature of the experiment: sandwich ELISA: sCD32B-Ig coated, diabody, sCD16A-Biotin probe, streptavidin-HRP. On the procedure: The plate was then incubated at room temperature for 1 hour.
A general note: An ELISA detects its analyte on a solid surface through an enzyme-linked reagent.

For one molecule, binding result and Kd results are on record in patent US20100174053A1 (published 2010).

T3 sequence (P08637 17-208): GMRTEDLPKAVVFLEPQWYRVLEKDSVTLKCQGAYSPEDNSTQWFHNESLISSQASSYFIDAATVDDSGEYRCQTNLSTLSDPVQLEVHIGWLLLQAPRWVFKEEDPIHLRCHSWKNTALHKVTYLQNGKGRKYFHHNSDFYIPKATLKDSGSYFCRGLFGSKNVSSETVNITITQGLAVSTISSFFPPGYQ

B1: h3G8 covalent monospecific diabody (CMD) (other)
chain: DIVMTQSPDSLAVSLGERATINCKASQSVDFDGDSFMNWYQQKPGQPPKLLIYTTSNLESGVPDRFSGSGSGTDFTLTISSLQAEDVAVYYCQQSNEDPYTFGQGTKLEIKGGGSGGGGQVTLRESGPALVKPTQTLTLTCTFSGFSLSTSGMGVGWIRQPPGKALEWLAHIWWDDDKRYNPALKSRLTISKDTSKNQVVLTMTNMDPVDTATYYCAQINPAWFAYWGQGTLVTVSSLGGC
notes: Covalent homodimer of construct 3; also called h3G8 CMD; h3G8 diabody
Consider B1, for which the binding result in experiment [1] is listed as “no binding (tested: 100 nM)”; in experiment [2], “no binding (tested: 100 nM)”; in experiment [4] it was “no binding (tested: 0.5 µg/ml to 0.001 µg/ml)”. In experiment [3], this molecule registered a Kd of 0.018 µM.
